Earlier results on one substance are cited in article PMC4040926.

The target of this data set is SNARE complex (Rattus norvegicus) (UniProt P32851). The data set can be described thus: ITC.
Sequence of UniProt P32851 (P32851 whole entry, chain 1 of 3): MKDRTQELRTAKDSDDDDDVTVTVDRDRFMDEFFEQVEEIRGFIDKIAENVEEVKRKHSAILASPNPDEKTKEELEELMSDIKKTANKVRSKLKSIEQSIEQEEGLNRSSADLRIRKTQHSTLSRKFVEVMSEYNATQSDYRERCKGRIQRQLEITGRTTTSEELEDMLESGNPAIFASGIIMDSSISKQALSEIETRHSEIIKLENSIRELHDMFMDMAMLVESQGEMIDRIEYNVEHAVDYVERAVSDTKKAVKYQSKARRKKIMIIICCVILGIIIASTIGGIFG
Sequence of UniProt P32851 (B2RAU4 whole entry, chain 2 of 3, further chain): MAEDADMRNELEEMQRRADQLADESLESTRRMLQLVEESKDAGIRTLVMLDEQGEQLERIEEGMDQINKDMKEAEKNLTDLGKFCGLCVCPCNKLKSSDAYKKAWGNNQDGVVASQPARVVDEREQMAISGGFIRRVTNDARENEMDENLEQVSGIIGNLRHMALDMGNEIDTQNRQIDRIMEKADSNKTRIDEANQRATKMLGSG
Sequence of UniProt P32851 (P63044 2-116, chain 3 of 3, further chain): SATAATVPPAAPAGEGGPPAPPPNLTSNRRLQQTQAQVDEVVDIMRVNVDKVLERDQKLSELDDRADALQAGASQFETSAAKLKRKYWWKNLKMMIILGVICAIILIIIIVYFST

Consider Complexin-I 26-83 (from UniProt P63041), for which the Kd is 25.3 nM.
